# Measurements from patent publication US20170002061A1 (ALLIGATOR BIOSCIENCE, published 2017).
# Tests used:
# [1] = molecular target: T1, Fc-fused CD40 (Ancell, #504-820) (human, UniProt P25942 21-193); assay: ELISA, Fc-fused CD40 coated at 0.05 ug/ml, IgG in serial dilution, anti human Ig-Fc-HRP
# T1 construct: not shown: Fc part of a bought fusion protein
# Experimental: For the CD40 binding ELISA, high binding flat bottom LIA plates (Greiner #655074) were coated with Fc-fused CD40 (Ancell, #504-820) at 0.05 μg/ml, and milk powder were used at 3% for blocking and at 1% for dilution. The antibodies to be tested were added in serial dilutions starting at 2000 ng/ml and detection was carried out using HRP conjugated goat anti human Ig-Fc (Jackson ImmunoResearch, #109-035-098) and Super Signal Pico Chemiluminescent (ThermoScientific, #37069) was used as substrate.
# CD40 on B cells = CD40 on B cells (UniProt P25942 21-277, limits assumed); assay: cell-based or functional assay
# Sequence of CD40 on B cells (P25942 21-277 limits assumed): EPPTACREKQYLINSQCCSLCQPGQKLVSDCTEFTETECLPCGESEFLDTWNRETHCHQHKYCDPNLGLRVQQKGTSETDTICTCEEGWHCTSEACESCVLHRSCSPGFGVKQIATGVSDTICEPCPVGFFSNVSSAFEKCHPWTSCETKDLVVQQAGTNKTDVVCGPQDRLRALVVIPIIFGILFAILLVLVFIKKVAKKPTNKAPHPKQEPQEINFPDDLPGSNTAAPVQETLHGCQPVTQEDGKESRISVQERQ
# [2] = molecular target: T2, LTBRhfc (R&Dsystems, USA) (human, UniProt P36941 28-227, limits assumed); assay: SPR (Biacore 3000), LTBRhfc amine-coupled to CM5, IgG as analyte, 37 C, pH 7.3
# T2 construct: Bought protein; also called Fc-fused LTBR (R&D Systems, #629-LR); not shown: Fc part ('hfc') of a bought fusion protein
# T2 sequence (P36941 28-227 limits assumed): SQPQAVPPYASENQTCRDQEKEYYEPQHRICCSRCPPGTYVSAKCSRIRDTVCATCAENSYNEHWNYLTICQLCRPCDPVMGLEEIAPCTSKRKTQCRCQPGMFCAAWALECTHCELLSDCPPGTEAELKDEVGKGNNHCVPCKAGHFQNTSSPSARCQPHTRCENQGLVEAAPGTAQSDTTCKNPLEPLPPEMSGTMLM
# Experimental: The LTBR binding antibody clones were screened, selected and cloned into full IgG format as described above for CD40. Binding to LTBR for two selected anti-LTBR antibody clones was characterized by surface plasmon resonance (SPR). SPR analysis of LTBR antibodies was performed according to standard protocols. The LTBRhfc (R&Dsystems, USA) was immobilized to the BIAcore sensorchip, CM5, using conventional amine coupling. The anti-LTBR antibodies (serially diluted ⅓ from 1-0.012 nM) were analysed for binding in HBS-P (GE, BR-1003-68) at a flow rate of 30 μl/min at 37° C. and pH 7.3. The association was followed for 3 minutes and the dissociation for 10 minutes. Regeneration was performed twice using 50 mM NaOH for 30 seconds. The kinetic parameters and the affinity constants were calculated using BIAevaluation 4.1 software, and samples were run, using the Biacore 3000 instrument according to manufacturer's protocols.
# T1 sequence (P25942 21-193 limits assumed): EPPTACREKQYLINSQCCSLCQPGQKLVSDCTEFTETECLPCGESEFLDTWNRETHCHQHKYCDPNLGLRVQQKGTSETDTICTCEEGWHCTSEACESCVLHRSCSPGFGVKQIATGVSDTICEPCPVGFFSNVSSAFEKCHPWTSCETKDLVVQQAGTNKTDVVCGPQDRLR
Binder,EC50 [1] [mg/L],"EC50 B cell (ug/ml); B cell proliferation, ATP content by Cell-titer glow (CD40 on B cells) [µg/mL]",Kd [2] [nM],koff [2] [s⁻¹],kon [2] [M⁻¹ s⁻¹]
"1146/1147 (antibody, V domains shown, From library AL2) VH: not shown VL: DIQMTQSPSSLSASVGDRVTITCRASQSISSYLNWYQQKPGKAPKLLIYAASSLQSGVPSRFSGSGSGTDFTLTISSLQPEDFATYYCQQYYYYPFTFGQGTKLEIK",0.58,3.6,–,–,–
"LTBR-3 (antibody, V domains shown, From library AL1) VH: not shown VL: DIQMTQSPSSLSASVGDRVTITCRASQSISSYLNWYQQKPGKAPKLLIYAASSLQSGVPSRFSGSGSGTDFTLTISSLQPEDFATYYCQQGWWYPLTFGQGTKLEIK",–,–,0.734,0.00158,2.23e+06
"B03 (antibody, V domains shown) VH: not shown VL: DIQMTQSPSSLSASVGDRVTITCRASQSISSYLNWYQQKPGKAPKLLIYAASSLQSGVPSRFSGSGSGTDFTLTISSLQPEDFATYYCQQGYHVWLYTFGQGTKLEIK",–,0.44,–,–,–
"1136/1137 (antibody, V domains shown, From library AL2) VH: not shown VL: DIQMTQSPSSLSASVGDRVTITCRASQSISSYLNWYQQKPGKAPKLLIYAASSLQSGVPSRFSGSGSGTDFTLTISSLQPEDFATYYCQQAYYAGLFTFGQGTKLEIK",1.4,1,–,–,–

# Results, then the binder that gave them:
EC50 [1] [mg/L],"EC50 B cell (ug/ml); B cell proliferation, ATP content by Cell-titer glow (CD40 on B cells) [µg/mL]",Kd [2] [nM],koff [2] [s⁻¹],kon [2] [M⁻¹ s⁻¹],Binder
0.034,0.7,–,–,–,"1107/1108 (antibody, V domains shown, From library AL1) VH: not shown VL: DIQMTQSPSSLSASVGDRVTITCRASQSISSYLNWYQQKPGKAPKLLIYAASSLQSGVPSRFSGSGSGTDFTLTISSLQPEDFATYYCQQYGVYPFTFGQGTKLEIK"
2.2,2.3,–,–,–,"1148/1149 (antibody, V domains shown, From library AL2) VH: not shown VL: DIQMTQSPSSLSASVGDRVTITCRASQSISSYLNWYQQKPGKAPKLLIYAASSLQSGVPSRFSGSGSGTDFTLTISSLQPEDFATYYCQQAYYFPHTFGQGTKLEIK"
